Data published in the supplement of paper PMC10567573.

B1: WEE1 (parent)
chain: FISRTSIPNAASEEGDEDDWASNK

Variants of: B1
Assay: protein stability index of a GFP-peptide fusion (GPS, HEK-293T) (PSI 1-6); higher = more stable
Conditions: c terminus: a fixed tail appended
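Note: lentivirally expressed fusions sorted by FACS into six bins by GFP to DsRed ratio, PSI derived from sequencing read proportions per bin multiplied by bin number.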

Point of comparison: FISRTSIPNAASEEGDEDDWASCK [N23C], protein stability index 3.73. Against it:
- FISRTSIPNAASEEGDEDDWDSNK [A21D] — higher, 4.77
- FISRTSIPNAASEEGDEDDWQSNK [A21Q] — lower, 3.62
- FISRTSIPNAASEEGDEDDWTSNK [A21T] — higher, 4.59
- FISRTSIPNAASEEGDEDDWRSNK [A21R] — higher, 4.39
- FISRTSIPNAASEEGDEDDWMSNK [A21M] — higher, 3.77
- FISRTSIPNAASEEGDEDDWSSNK [A21S] — higher, 4.1
- FISRTSIPNAASEEGDEDDWLSNK [A21L] — lower, 3.29
- FISRTSIPNAASEEGDEDDWPSNK [A21P] — lower, 3.7
- FISRTSIPNAASEEGDEDDWYSNK [A21Y] — higher, 3.9
- FISRTSIPNAASEEGDEDDWKSNK [A21K] — higher, 4.21
- FISRTSIPNAASEEGDEDDWISNK [A21I] — higher, 3.83
- FISRTSIPNAASEEGDEDDWWSNK [A21W] — lower, 3.53
- FISRTSIPNAASEEGDEDDWVSNK [A21V] — higher, 3.81
- FISRTSIPNAASEEGDEDDWESNK [A21E] — higher, 4.5
- FISRTSIPNAASEEGDEDDWGSNK [A21G] — higher, 4.63
- FISRTSIPNAASEEGDEDDWFSNK [A21F] — lower, 3.72
- FISRTSIPNAASEEGDEDDWHSNK [A21H] — higher, 4.09
- FISRTSIPNAASEEGDEDDWNSNK [A21N] — higher, 3.76
- FISRTSIPNAASEEGDEDDWCSNK [A21C] — higher, 4.1
- FISRTSIPNAASEEGDEDNWASNK [D19N] — lower, 3.72
- FISRTSIPNAASEEGDEDRWASNK [D19R] — lower, 3.5
- FISRTSIPNAASEEGDEDIWASNK [D19I] — lower, 2.67
- FISRTSIPNAASEEGDEDCWASNK [D19C] — lower, 3.34
- FISRTSIPNAASEEGDEDQWASNK [D19Q] — higher, 3.87
- FISRTSIPNAASEEGDEDAWASNK [D19A] — higher, 3.77
- FISRTSIPNAASEEGDEDPWASNK [D19P] — lower, 3.37
- FISRTSIPNAASEEGDEDKWASNK [D19K] — higher, 3.77
- FISRTSIPNAASEEGDEDGWASNK [D19G] — higher, 3.82
- FISRTSIPNAASEEGDEDLWASNK [D19L] — lower, 2.48
- FISRTSIPNAASEEGDEDWWASNK [D19W] — lower, 2.37
- FISRTSIPNAASEEGDEDFWASNK [D19F] — lower, 2.31
- FISRTSIPNAASEEGDEDYWASNK [D19Y] — lower, 3.27
- FISRTSIPNAASEEGDEDVWASNK [D19V] — lower, 3.02
- FISRTSIPNAASEEGDEDMWASNK [D19M] — lower, 3.06
- FISRTSIPNAASEEGDEDTWASNK [D19T] — lower, 3.58
- FISRTSIPNAASEEGDEDSWASNK [D19S] — higher, 3.78
- FISRTSIPNAASEEGDEDHWASNK [D19H] — lower, 3.61
- FISRTSIPNAASEEGDEDEWASNK [D19E] — higher, 3.96
- FISRTSIPNAASEEGDFDDWASNK [E17F] — lower, 3.01
- FISRTSIPNAASEEGDYDDWASNK [E17Y] — lower, 3.59
- FISRTSIPNAASEEGDQDDWASNK [E17Q] — higher, 3.79
- FISRTSIPNAASEEGDDDDWASNK [E17D] — higher, 4.06
- FISRTSIPNAASEEGDTDDWASNK [E17T] — lower, 3.64
- FISRTSIPNAASEEGDGDDWASNK [E17G] — higher, 3.75
- FISRTSIPNAASEEGDKDDWASNK [E17K] — the same, 3.73
- FISRTSIPNAASEEGDADDWASNK [E17A] — the same, 3.73
- FISRTSIPNAASEEGDPDDWASNK [E17P] — lower, 3.37
- FISRTSIPNAASEEGDRDDWASNK [E17R] — lower, 3.67
- FISRTSIPNAASEEGDMDDWASNK [E17M] — lower, 3.67
- FISRTSIPNAASEEGDIDDWASNK [E17I] — higher, 3.8
- FISRTSIPNAASEEGDHDDWASNK [E17H] — higher, 4.05
- FISRTSIPNAASEEGDVDDWASNK [E17V] — lower, 3.35
- FISRTSIPNAASEEGDNDDWASNK [E17N] — lower, 2.13
- FISRTSIPNAASEEGDCDDWASNK [E17C] — lower, 3.43
- FISRTSIPNAASEEGDWDDWASNK [E17W] — lower, 3.04
- FISRTSIPNAASEEGDSDDWASNK [E17S] — lower, 3.72
- FISRTSIPNAASEEGDLDDWASNK [E17L] — lower, 3.11
- FISRTSIPNAASEEGDEDDWAMNK [S22M] — higher, 3.88
- FISRTSIPNAASEEGDEDDWAKNK [S22K] — higher, 4.38
- FISRTSIPNAASEEGDEDDWANNK [S22N] — higher, 4.11
- FISRTSIPNAASEEGDEDDWAFNK [S22F] — higher, 3.96
- FISRTSIPNAASEEGDEDDWAHNK [S22H] — higher, 3.92
- FISRTSIPNAASEEGDEDDWAINK [S22I] — higher, 4.24
- FISRTSIPNAASEEGDEDDWACNK [S22C] — higher, 3.87
- FISRTSIPNAASEEGDEDDWAVNK [S22V] — higher, 3.96
- FISRTSIPNAASEEGDEDDWAENK [S22E] — higher, 4.18
- FISRTSIPNAASEEGDEDDWADNK [S22D] — higher, 4.51
- FISRTSIPNAASEEGDEDDWAANK [S22A] — higher, 4.15
- FISRTSIPNAASEEGDEDDWATNK [S22T] — higher, 4.23
- FISRTSIPNAASEEGDEDDWAQNK [S22Q] — higher, 3.9
- FISRTSIPNAASEEGDEDDWAWNK [S22W] — lower, 2.71
- FISRTSIPNAASEEGDEDDWAYNK [S22Y] — higher, 4.08
- FISRTSIPNAASEEGDEDDWALNK [S22L] — lower, 3.52
- FISRTSIPNAASEEGDEDDWAGNK [S22G] — lower, 2.83
- FISRTSIPNAASEEGDEDDWAPNK [S22P] — lower, 3.14
- FISRTSIPNAASEEGDEDDWARNK [S22R] — higher, 3.99
- FISRTSIPNAASEEGYEDDWASNK [D16Y] — lower, 3.46
- FISRTSIPNAASEEGDEDDWASTK [N23T] — higher, 4.22
- FISRTSIPNAASEEGDEDDWASQK [N23Q] — higher, 3.82
- FISRTSIPNAASEEGDEDDWASMK [N23M] — lower, 3.57
- FISRTSIPNAASEEGDEDDWASIK [N23I] — higher, 3.79
- FISRTSIPNAASEEGDEDDWASSK [N23S] — higher, 4.16
- FISRTSIPNAASEEGDEDDWASVK [N23V] — lower, 2.71
- FISRTSIPNAASEEGDEDDWASKK [N23K] — higher, 3.93
- FISRTSIPNAASEEGDEDDWASGK [N23G] — higher, 4.33
- FISRTSIPNAASEEGDEDDWASRK [N23R] — higher, 4.21
- FISRTSIPNAASEEGDEDDWASAK [N23A] — higher, 3.94
- FISRTSIPNAASEEGDEDDWASYK [N23Y] — lower, 3.64
- FISRTSIPNAASEEGDEDDWASPK [N23P] — lower, 3.67
- FISRTSIPNAASEEGDEDDWASHK [N23H] — higher, 3.76
- FISRTSIPNAASEEGDEDDWASFK [N23F] — higher, 3.94
- FISRTSIPNAASEEGDEDDWASEK [N23E] — higher, 4.22
- FISRTSIPNAASEEGDEDDWASWK [N23W] — lower, 3.65
- FISRTSIPNAASEEGDEDDWASLK [N23L] — lower, 3.45
- FISRTSIPNAASEEGDEDDWASDK [N23D] — higher, 3.92
- FISRTSIPNAASEEGDEDDWASNL [K24L] — higher, 4.04
- FISRTSIPNAASEEGDEDDWASNF [K24F] — higher, 4.04
- FISRTSIPNAASEEGDEDDWASNV [K24V] — lower, 3.58
- FISRTSIPNAASEEGDEDDWASNH [K24H] — higher, 3.91
- FISRTSIPNAASEEGDEDDWASNG [K24G] — higher, 4.01
- FISRTSIPNAASEEGDEDDWASNQ [K24Q] — higher, 4.46
- FISRTSIPNAASEEGDEDDWASNR [K24R] — lower, 3.08
- FISRTSIPNAASEEGDEDDWASNY [K24Y] — higher, 3.94
- FISRTSIPNAASEEGDEDDWASNI [K24I] — higher, 4.12
- FISRTSIPNAASEEGDEDDWASNT [K24T] — higher, 4.12
- FISRTSIPNAASEEGDEDDWASNA [K24A] — higher, 4.19
- FISRTSIPNAASEEGDEDDWASNW [K24W] — lower, 2.94
- FISRTSIPNAASEEGDEDDWASNM [K24M] — higher, 3.82
- FISRTSIPNAASEEGDEDDWASNE [K24E] — higher, 4.69
- FISRTSIPNAASEEGDEDDWASNC [K24C] — higher, 4.15
- FISRTSIPNAASEEGDEDDWASNN [K24N] — higher, 4.23
- FISRTSIPNAASEEGDEDDWASNS [K24S] — higher, 4.53
- FISRTSIPNAASEEGDEDDWASND [K24D] — higher, 4.73
- FISRTSIPNAASEEGDEDDWASNP [K24P] — higher, 4.54
- FISRTSIPNAASEEGDEDDEASNK [W20E] — higher, 4.75
- FISRTSIPNAASEEGDEDDKASNK [W20K] — lower, 3.42
- FISRTSIPNAASEEGDEDDYASNK [W20Y] — higher, 4.23
- FISRTSIPNAASEEGDEDDRASNK [W20R] — higher, 4.46
- FISRTSIPNAASEEGDEDDVASNK [W20V] — higher, 4.81
- FISRTSIPNAASEEGDEDDQASNK [W20Q] — higher, 4.7
- FISRTSIPNAASEEGDEDDMASNK [W20M] — higher, 4.44
- FISRTSIPNAASEEGDEDDPASNK [W20P] — higher, 4.57
- FISRTSIPNAASEEGDEDDTASNK [W20T] — higher, 4.46
- FISRTSIPNAASEEGDEDDDASNK [W20D] — higher, 4.92
- FISRTSIPNAASEEGDEDDFASNK [W20F] — higher, 4.81
- FISRTSIPNAASEEGDEDDHASNK [W20H] — higher, 4.44
- FISRTSIPNAASEEGDEDDGASNK [W20G] — higher, 4.52
- FISRTSIPNAASEEGDEDDNASNK [W20N] — higher, 4.51
- FISRTSIPNAASEEGDEDDIASNK [W20I] — higher, 4.21
- FISRTSIPNAASEEGDEDDCASNK [W20C] — higher, 4.75
- FISRTSIPNAASEEGDEDDLASNK [W20L] — higher, 4.23
- FISRTSIPNAASEEGDEDDSASNK [W20S] — higher, 4.93
- FISRTSIPNAASEEGDEDDAASNK [W20A] — higher, 4.79
- FISRTSIPNAASEEGDETDWASNK [D18T] — lower, 3.5
- FISRTSIPNAASEEGDEWDWASNK [D18W] — lower, 2.54
- FISRTSIPNAASEEGDEIDWASNK [D18I] — lower, 3.53
- FISRTSIPNAASEEGDEPDWASNK [D18P] — lower, 3.6
- FISRTSIPNAASEEGDEHDWASNK [D18H] — lower, 2.23
- FISRTSIPNAASEEGDEEDWASNK [D18E] — higher, 4.22
- FISRTSIPNAASEEGDEVDWASNK [D18V] — lower, 3.35
- FISRTSIPNAASEEGDEQDWASNK [D18Q] — lower, 3.56
- FISRTSIPNAASEEGDESDWASNK [D18S] — lower, 3.46
- FISRTSIPNAASEEGDELDWASNK [D18L] — lower, 3.16
- FISRTSIPNAASEEGDEFDWASNK [D18F] — lower, 2.5
- FISRTSIPNAASEEGDECDWASNK [D18C] — lower, 3.28
- FISRTSIPNAASEEGDEGDWASNK [D18G] — lower, 3.55
- FISRTSIPNAASEEGDEKDWASNK [D18K] — higher, 3.76
- FISRTSIPNAASEEGDEYDWASNK [D18Y] — lower, 2.5
- FISRTSIPNAASEEGDEADWASNK [D18A] — lower, 3.62
- FISRTSIPNAASEEGDEMDWASNK [D18M] — lower, 3.03
- FISRTSIPNAASEEGDERDWASNK [D18R] — higher, 3.81
- FISRTSIPNAASEEGDENDWASNK [D18N] — lower, 3.27
